Values of other authors, collected in PMC3901153.
pKd: −log10 of the molar value.

Key:
TLR4 (Homo sapiens) = TLR4 (Homo sapiens) (UniProt O00206)
RAGE (Homo sapiens) = RAGE (Homo sapiens) (UniProt Q15109)
UniProt Q15109, sequence (Q15109 23-404): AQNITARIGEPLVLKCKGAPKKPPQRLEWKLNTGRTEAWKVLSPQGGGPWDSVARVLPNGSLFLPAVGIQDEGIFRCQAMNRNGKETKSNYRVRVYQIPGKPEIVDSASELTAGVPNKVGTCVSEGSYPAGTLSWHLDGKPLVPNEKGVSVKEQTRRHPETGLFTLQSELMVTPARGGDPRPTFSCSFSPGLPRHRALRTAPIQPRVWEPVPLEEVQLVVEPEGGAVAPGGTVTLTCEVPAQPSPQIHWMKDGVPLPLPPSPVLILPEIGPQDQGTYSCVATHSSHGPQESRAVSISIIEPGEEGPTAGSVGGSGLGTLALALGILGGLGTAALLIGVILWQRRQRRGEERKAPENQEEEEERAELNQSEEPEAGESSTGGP

UniProt O00206, sequence (O00206 24-839): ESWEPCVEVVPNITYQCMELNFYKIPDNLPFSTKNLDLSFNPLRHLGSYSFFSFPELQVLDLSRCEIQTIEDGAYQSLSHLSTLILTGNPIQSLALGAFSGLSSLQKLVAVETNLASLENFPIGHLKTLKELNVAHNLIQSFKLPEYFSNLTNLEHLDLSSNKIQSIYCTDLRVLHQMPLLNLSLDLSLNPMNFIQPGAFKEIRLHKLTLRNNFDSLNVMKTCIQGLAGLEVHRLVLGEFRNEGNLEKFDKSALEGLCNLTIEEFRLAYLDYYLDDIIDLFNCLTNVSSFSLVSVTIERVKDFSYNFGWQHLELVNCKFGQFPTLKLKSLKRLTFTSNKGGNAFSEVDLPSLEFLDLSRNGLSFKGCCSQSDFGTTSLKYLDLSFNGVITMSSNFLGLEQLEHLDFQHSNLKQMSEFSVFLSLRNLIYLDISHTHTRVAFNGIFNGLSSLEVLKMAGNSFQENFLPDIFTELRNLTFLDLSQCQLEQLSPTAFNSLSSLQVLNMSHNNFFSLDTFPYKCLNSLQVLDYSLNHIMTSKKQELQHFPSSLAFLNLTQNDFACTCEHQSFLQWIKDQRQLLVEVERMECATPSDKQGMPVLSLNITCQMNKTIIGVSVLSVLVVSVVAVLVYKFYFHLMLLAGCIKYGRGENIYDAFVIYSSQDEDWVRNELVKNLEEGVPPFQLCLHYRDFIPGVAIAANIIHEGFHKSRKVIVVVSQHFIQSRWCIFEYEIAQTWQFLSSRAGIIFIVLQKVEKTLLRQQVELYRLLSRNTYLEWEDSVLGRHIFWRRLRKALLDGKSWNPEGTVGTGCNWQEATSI

pKd (TLR4 (Homo sapiens)): 5.82 | pKd (RAGE (Homo sapiens)): 8.00
Substance: HMGB1 (from UniProt P09429)
